The record followed here is publication PMC9318647, “Human and Bacterial Toll-Interleukin Receptor Domains Exhibit Distinct Dynamic Features and Functions” (Molecules, 2022).

B1: human TLR1 TIR domain (TLR1-TIR), residues 625-786, untagged (domain or fragment, UniProt Q15399 625-786, looked up)
chain: NIPLEELQRNLQFHAFISYSGHDSFWVKNELLPNLEKEGMQICLHERNFVPGKSIVENIITCIEKSYKSIFVLSPNFVQSEWCHYELYFAHHNLFHEGSNSLILILLEPIPQYSIPSSYHKLKSLMARRTYLEWPKEKSKRGLFWANLRAAINIKLTEQAKK
notes: human TLR1, NCBI NP_003254.2, the entire intracellular TIR region of residues 625-786; Elutes as distinct dimer and monomer peaks on Superose-12; also called untagged TLR1-TIR
B2: human TLR2 TIR domain (TLR2-TIR), residues 633-784, untagged (domain or fragment, UniProt O60603 633-784, looked up)
chain: KAPSRNICYDAFVSYSERDAYWVENLMVQELENFNPPFKLCLHKRDFIPGKWIIDNIIDSIEKSHKTVFVLSENFVKSEWCKYELDFSHFRLFDENNDAAILILLEPIEKKAIPQRFCKLRKIMNTKTYLEWPMDEAQREGFWVNLRAAIKS
notes: human TLR2, NCBI NP_001305716.1, the entire intracellular TIR region of residues 633-784; 15N-labelled in the NMR experiments; Elutes as distinct dimer and monomer peaks on Superose-12; also called 15N-TLR2-TIR
B3: Staphylococcus aureus TIR protein (tirS), full length (natural protein)
chain: MSVLETKLKSQMSKSAKIARNMNKLPDEIDRLRKRIERINKKRKPTSSNIRDLEKSNKQLVTKQQKLADLQVEYTKIEKKINETKINLQKEQSRNQKKLSSMLDKNTKGNEEIMEKLLTNSDQINEISNQIKKAVNQKEIIEYDVFLSHSSLDKEDYVSKISEKLIEKGLKVFEDVKVFEIGKSQTETMNMGILNSRFVVVFLSPNFIESGWSRYEFLSFLNREINEEHVIILPIWHKVSVEDVRAYNPYLVDKYALNTSDFSIEEIVEKIYQVIVNSKN
notes: Staphylococcus aureus TIR protein (tirS), NCBI WP_000114516.1, full length (CC domain and TIR domain); also called full-length tirS

Data set [1] has as its target tirS coil-coil (CC) domain (Staphylococcus aureus). Description: SEC; analytical sizing of the full-length bacterial TIR-containing proteins, their CC domains and TIR constructs; sample loads 200 μM, except tirS-TIR E216A 20 μM and tirA-TIR E206A 50 μM.
The target of data set [2] is tirE coil-coil (CC) domain (Enterococcus). The description is as above.
Data set [3] deals with tirA coil-coil (CC) domain (Acinetobacter junii). The data set is described as above.
In data set [4] the target is Acinetobacter junii TIR protein (tirA), full length (Acinetobacter junii). Described as above.
The target in data set [5] is Enterococcus TIR protein (tirE), full length (Enterococcus). The data set is described as above.
Data set [6] concerns the molecule itself. Kind of data set: SEC; analytical Superose-12; 50 mM Na2HPO4, pH 6.5, 150 mM NaCl, 1 mM DTT; TLR1-TIR and TLR2-TIR also after 30 min in 50 mM DTT (homodimers minimized). On the technique in general: In gel filtration, larger molecules generally elute earlier.
Data set [7] deals with human TLR2 TIR domain (TLR2-TIR), residues 633-784, untagged (human) (UniProt O60603). Described as above.
Data set [8] addresses B1. Kind of data set: NMR titration; 15N-TLR2-TIR at 308 μM, unlabeled partner added (TLR1-TIR 308, 616, 924 μM; full-length tirA 308 μM); 15N-HSQC; global fit of several resonances. The following applies: both partners purified.
Data set [9] deals with the molecule itself. Kind of data set: SEC; analytical sizing of the full-length bacterial TIR-containing proteins, their CC domains and TIR constructs; sample loads 200 μM, except tirS-TIR E216A 20 μM and tirA-TIR E206A 50 μM.

What is called stoichiometry N is the number of molecules, sites or subunits per partner or assembly. “tirS coil-coil (CC) domain (domain or fragment)”: the stoichiometry N in data set [1] was 2.

“tirE coil-coil (CC) domain (domain or fragment)” came in with a stoichiometry N in data set [2] of 2.

“tirA coil-coil (CC) domain (domain or fragment)” showed a stoichiometry N in data set [3] of 2.

For the molecule “Acinetobacter junii TIR protein (tirA), full length (natural protein)”, in data set [4], the stoichiometry N was 2.

As for “Enterococcus TIR protein (tirE), full length (natural protein)”, in data set [5], the stoichiometry N stood at 2.

In the case of B1, the “stoichiometry N” value in data set [6] was determined as 2.

In general, Kd refers to the equilibrium constant for the complex coming apart. Lower therefore signals higher affinity. For the molecule B2, the stoichiometry N in data set [7] was determined as 2. Further, the Kd in data set [8] was 760 ± 230 µM.

As for B3, the “stoichiometry N” value in data set [9] turned out to be 2.
